B1: EpAb2-6: anti-EpCAM neutralizing monoclonal antibody targeting EpEX; VH SEQ ID NO: 15, VL SEQ ID NO: 16 (antibody, listed as Homo sapiens, V domains shown)
VH: VKLQESGPELKKPGETVKISCKASGYTFTDYSMHWVKQAPGKGLKWMGWINTETGEPTYADDFKGRFAFSLETSASTAYLQINNLKNEDTATYFCARTAVYWGQGTTVTVSS
VL: DIQMTQSPSSLSASLGERVSLTCRASQEISVSLSWLQQEPDGTIKRLIYATSTLDSGVPKRFSGSRSGSDYSLTISSLESEDFVDYYCLQYASYPWTFGGGTKLEIKRADAAPTVS

Key:
Assay type in all cases: cell-based, human
HCT116 cells = assay: Cell growth by WST-1 assay, HCT116; details: 50 nM EpEX and SU 10 μM, FIG. 2D
Procedure: (§1) FIGS. 2A to 2K. EpEX promotes tumor progression via HGFR signaling. (FIG. 2A) WT or EpCAM knockout (KO) HCT116 and HT29 cells treated with HGF (0.5 nM) for 15 min. The phosphorylation of HGFR, AKT, and ERK was examined by Western blotting. (FIG. 2B) WT or KO HCT116 and HT29 cells were treated with HGF (0.5 nM) with 2% FBS for the indicated times. Cell growth was examined by the WST-1 assay. (FIG. 2C) Starved HCT116 cells were treated with HGFR inhibitor SU11274 (SU, 10 μM) for 1 h then treated with 50 nM of EpEX-His for 15 min. The levels of phosphorylated HGFR, EGFR, AKT, and ERK were examined by Western blotting. HCT116 and HT29 cells were treated with 50 nM EpEX and SU (10 μM). (FIG. 2D) Cell growth was examined by WST-1 assay after treatment for indicated time. (FIG. 2E) HCT116 cells were treated with shLuc or HGFR shRNA then treated with 50 nM of EpEX-His for 15 min. The levels of phosphorylated HGFR, EGFR, ERK, and AKT were examined in HGFR knockdown HCT116 cells by Western blotting. (FIG. 2F) The levels of phosphorylated ADAM17 and presenilin 2 were examined by Western blotting. […]
(§2) Cell viability was assayed by measuring mitochondrial dehydrogenase activity with the WST-1 (4-[3-(4-lodophenyl)-2-(4-nitrophenyl)-2H-5-tetrazolio]-1, 3-benzene disulfonate) assay. […] Following the incubation, absorbance of each well was detected at 450 nm using a spectrophotometric microplate reader.

HT29 cells = assay: Cell growth by WST-1 assay, HT29; details: 50 nM EpEX and SU 10 μM, FIG. 2D
Procedure: as §1, §2

HGFR signaling = assay: Western blotting of phosphorylated ERK and AKT in HT29 cells; details: SU11274 with EpEX-His, FIG. 2C
Procedure: FIGS. 2A to 2K. EpEX promotes tumor progression via HGFR signaling. (FIG. 2A) WT or EpCAM knockout (KO) HCT116 and HT29 cells treated with HGF (0.5 nM) for 15 min. The phosphorylation of HGFR, AKT, and ERK was examined by Western blotting. (FIG. 2B) WT or KO HCT116 and HT29 cells were treated with HGF (0.5 nM) with 2% FBS for the indicated times. Cell growth was examined by the WST-1 assay. (FIG. 2C) Starved HCT116 cells were treated with HGFR inhibitor SU11274 (SU, 10 μM) for 1 h then treated with 50 nM of EpEX-His for 15 min. The levels of phosphorylated HGFR, EGFR, AKT, and ERK were examined by Western blotting. HCT116 and HT29 cells were treated with 50 nM EpEX and SU (10 μM). […]
Whole cell extracts were prepared with RIPA buffer (50 mM Tris-HCl pH7.4, 1% NP-40, 0.5% Sodium deoxycholate, 0.1% SDS, 150 mM NaCl, 2 mM EDTA, 50 mM NaF). Protein concentrations of the cell lysates were determined by the Bradford assay. […]
Appropriate horseradish peroxidase-associated secondary antibodies (Millipore) were applied and the membranes were incubated at room temperature (RT) for 1 h. The protein bands were subsequently visualized with chemiluminescence reagents (Millipore) and detected on a BioSpectrum 600 Imaging system (UVP). The protein level was quantified from band intensity using Gel-Pro analyzer 3.1 (Media Cybernetics).

[1] = test system: GSK3β, active β-catenin and Snail; assay: Western blotting of GSK3β, active β-catenin, Snail and EMT proteins in HCT116 cells

Molecule | EpEX-induced increases in cell viability and proliferation (HCT116 cells) | EpEX-induced increases in cell viability and proliferation (HT29 cells) | EpEX-mediated ERK and AKT phosphorylation (HGFR signaling) | Active β-catenin and Snail steady-state protein levels ([1]; 10 μM MG132 and EpAb2-6 for 6 h, FIG. 6I) | activating phosphorylation of GSK3β at Y216 (active GSK3β) ([1]; 24 h, FIG. 6H) | suppressive phosphorylation of GSK3β at S9 (inactive GSK3β) ([1]; 24 h, FIG. 6H) | levels of E-cadherin ([1]; 24 h, vs control IgG, FIG. 6G) | levels of Snail and the active β-catenin ([1]; 24 h, vs control IgG, FIG. 6G)
Cc1[nH]c(C=C2C(=O)Nc3ccc(S(=O)(=O)N(C)c4cccc(Cl)c4)cc32)c(C)c1C(=O)N1CCN(C)CC1 (stereo in doubt) [SU11274, (3Z)-N-(3-Chlorophenyl)-3-({3,5-dimethyl-4-[(4-methylpiperazin-1-yl)carbonyl]-1H-pyrrol-2-yl}methylene)-N-methyl-2-oxo-2,3-dihydro-1H-indole-5-sulfonamide] | abolished the EpEX-induced increases in cell viability and proliferation | abolished the EpEX-induced increases in cell viability and proliferation | attenuate EpEX-mediated ERK and AKT phosphorylation | – | – | – | – | –
B1 | – | – | – | reduced | increased activating phosphorylation of the protein at Y216 | decreased suppressive phosphorylation of GSK3β at S9 | increased the levels of E-cadherin | decreasing Snail and the active β-catenin

Source: patent US20250269018A1, “COMBINED CANCER THERAPY WITH AN EPITHELIAL CELL ADHESION MOLECULE (EPCAM) INHIBITOR AND A HEPATOCYTE GROWTH FACTOR RECEPTOR (HGFR) INHIBITOR” (ACADEMIA SINICA, priority 2021, published 2025)
